Measured values as given in patent US20260242478A1 (published 2026).

What was measured:
[1] = target: T1, Anti-CD28 Fab (SEQ ID NOs: 696, 697); test: phage binding ELISA; Fab-coated wells pre-incubated with CD28 antigen as competitor, phage detected with anti-M13-HRP
T1 construct: In the phage ELISA the Fab was biotinylated and captured on neutravidin coated plates

[2] = target: T1, Anti-CD28 Fab (SEQ ID NOs: 696, 697); test: phage binding ELISA; biotinylated anti-CD28 Fab on neutravidin plate, clonal phage detected with anti-M13-HRP;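 also: crude clonal phage supernatants added briefly to wells preincubated in blocking buffer with or without CD28 antigen, then washed before detection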
[3] = target: T2, Anti-PSMA Fab (SEQ ID NOs: 19, 20); test: phage binding ELISA on captured anti-PSMA Fab; PSMA antigen as competitor
T2 construct: Biotinylated and captured on neutravidin coated plates in the phage ELISA; also called 006 PSMA Fab

[4] = target: T2, Anti-PSMA Fab (SEQ ID NOs: 19, 20); test: phage binding ELISA; biotinylated anti-PSMA Fab captured on neutravidin, bound phage detected with anti-M13 HRP
[5] = target: T3, Anti-PSMA Fab (SEQ ID NOs: 19, 20); test: phage binding ELISA; clonal phage on biotinylated PSMA Fab captured on neutravidin plates, anti-M13 HRP detection
T3 construct: Biotinylated Fab captured on neutravidin coated plates in the phage ELISA; also called 006 PSMA Fab

[6] = target: T3, Anti-PSMA Fab (SEQ ID NOs: 19, 20); test: phage binding ELISA on PSMA Fab coated plates; competitor: PSMA antigen

T1 sequence (VH, as listed by the source, chain 1 of 2): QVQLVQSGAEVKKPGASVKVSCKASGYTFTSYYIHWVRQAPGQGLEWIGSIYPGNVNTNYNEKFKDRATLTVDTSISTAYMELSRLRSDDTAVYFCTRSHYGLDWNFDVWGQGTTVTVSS
T1 sequence (VL, as listed by the source, chain 2 of 2): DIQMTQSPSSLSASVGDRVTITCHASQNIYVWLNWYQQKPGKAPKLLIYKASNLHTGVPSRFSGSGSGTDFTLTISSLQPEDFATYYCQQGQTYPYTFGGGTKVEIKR

SCAAGATYEWPTCL (Peptide-92 library clone) [Phage-1686] was tested, and the “Anti-CD28 Fab signal in the presence of CD28” value (from here on “Anti-CD28 Fab signal”) [1] was 0.07 and the “Anti-CD28 Fab (SEQ ID NOs: 696, 697) signal” value [2] was 0.81.

In the case of LEKLCKPAWMCVNF [Phage-1788 (clonal phage displaying the peptide of SEQ ID NO: 2084)], the “Anti-PSMA Fab signal in the presence of PSMA” value (“Anti-PSMA Fab signal” below) [3] is reported as 0.107 and the “Anti-PSMA Fab (SEQ ID NOs: 19, 20) signal” value [4] is reported as 1.66.

For TCAAGASWDWPFCF (Peptide-92 library clone) [Phage-1684], the “Anti-CD28 Fab signal” value [1] was 0.08 and the “Anti-CD28 Fab (SEQ ID NOs: 696, 697) signal” value [2] was 0.82.

For LDNWCKPSWMCTGF [Phage-1777 (clonal phage displaying the peptide of SEQ ID NO: 2073)], the “Anti-PSMA Fab signal” value [3] was 0.0633 and the “Anti-PSMA Fab (SEQ ID NOs: 19, 20) signal” value [4] was 2.05.

For LCQWYPKFHWMDCD (also called Peptide-210) [Phage-1760], the “Anti-PSMA Fab (SEQ ID NOs: 19, 20) signal” value [5] was 0.611 and the “Anti-PSMA Fab signal” value [6] was 0.0695.

TCAAGAKYVWPLCF (Peptide-92 library clone) [Phage-1682] was tested, and the “Anti-CD28 Fab signal” value [1] was 0.12 and the “Anti-CD28 Fab (SEQ ID NOs: 696, 697) signal” value [2] was 0.85.

With GEKWCIPDWMCSGF [Phage-1783 (clonal phage displaying the peptide of SEQ ID NO: 2079)] the “Anti-PSMA Fab signal” value [3] was 0.148 and the “Anti-PSMA Fab (SEQ ID NOs: 19, 20) signal” value [4] was 1.91.

With QCAAGFSYTWPECY (Peptide-92 library clone) [Phage-1678] the “Anti-CD28 Fab signal” value [1] was 0.11 and the “Anti-CD28 Fab (SEQ ID NOs: 696, 697) signal” value [2] was 0.9.

With EFKWCIPSWMCHET [Phage-1778 (clonal phage displaying the peptide of SEQ ID NO: 2074)] the “Anti-PSMA Fab signal” value [3] was 0.0857 and the “Anti-PSMA Fab (SEQ ID NOs: 19, 20) signal” value [4] was 2.02.

With ISKWCIPEWMCTSP [Phage-1787 (clonal phage displaying the peptide of SEQ ID NO: 2083)] the “Anti-PSMA Fab signal” value [3] was 0.107 and the “Anti-PSMA Fab (SEQ ID NOs: 19, 20) signal” value [4] was 1.73.

In the case of TCAAGATYEWPSCI (Peptide-92 library clone) [Phage-1681], the “Anti-CD28 Fab signal” value [1] is reported as 0.09 and the “Anti-CD28 Fab (SEQ ID NOs: 696, 697) signal” value [2] is reported as 0.86.

With WCAAFFHYPWPQCF (Peptide-92 library clone) [Phage-1679] the “Anti-CD28 Fab signal” value [1] was 0.05 and the “Anti-CD28 Fab (SEQ ID NOs: 696, 697) signal” value [2] was 0.87.

In the case of LEKLCIPAWMCEWL [Phage-1765], the “Anti-PSMA Fab (SEQ ID NOs: 19, 20) signal” value [5] is reported as 2.4 and the “Anti-PSMA Fab signal” value [6] is reported as 0.184.

For EGIRCTPIWMCEGF [Phage-1774], the “Anti-PSMA Fab (SEQ ID NOs: 19, 20) signal” value [5] was 2.09 and the “Anti-PSMA Fab signal” value [6] was 0.0778.

DVKLCKPEWMCYGL [Phage-1786 (clonal phage displaying the peptide of SEQ ID NO: 2082)] was tested, and the “Anti-PSMA Fab signal” value [3] was 0.0637 and the “Anti-PSMA Fab (SEQ ID NOs: 19, 20) signal” value [4] was 1.75.

For HCEFHDYQSCDVLY [Phage-1761], the “Anti-PSMA Fab (SEQ ID NOs: 19, 20) signal” value [5] was 1.89 and the “Anti-PSMA Fab signal” value [6] was 0.126.

For DLRLCKPAWMCDFI [Phage-1781 (clonal phage displaying the peptide of SEQ ID NO: 2077)], the “Anti-PSMA Fab signal” value [3] was 0.0601 and the “Anti-PSMA Fab (SEQ ID NOs: 19, 20) signal” value [4] was 1.95.

With LTKLCIPDWMCSEF [Phage-1776 (clonal phage displaying the peptide of SEQ ID NO: 2072)] the “Anti-PSMA Fab signal” value [3] was 0.0876 and the “Anti-PSMA Fab (SEQ ID NOs: 19, 20) signal” value [4] was 2.07.

In the case of IDKLCIPFWMCENL [Phage-1771], the “Anti-PSMA Fab (SEQ ID NOs: 19, 20) signal” value [5] is reported as 2.16 and the “Anti-PSMA Fab signal” value [6] is reported as 0.0699.

In the case of IDIRCTPIWMCVGF [Phage-1789 (clonal phage displaying the peptide of SEQ ID NO: 2085)], the “Anti-PSMA Fab signal” value [3] is reported as 0.0801 and the “Anti-PSMA Fab (SEQ ID NOs: 19, 20) signal” value [4] is reported as 1.57.

With VGKLCVPEWMCVGL [Phage-1767] the “Anti-PSMA Fab (SEQ ID NOs: 19, 20) signal” value [5] was 2.25 and the “Anti-PSMA Fab signal” value [6] was 0.063.

For LEKTCIPTWMCVGF [Phage-1784 (clonal phage displaying the peptide of SEQ ID NO: 2080)], the “Anti-PSMA Fab signal” value [3] was 0.0732 and the “Anti-PSMA Fab (SEQ ID NOs: 19, 20) signal” value [4] was 1.88.

With LCEAGFNYDWPRCL (Peptide-92 library clone) [Phage-1683] the “Anti-CD28 Fab signal” value [1] was 0.07 and the “Anti-CD28 Fab (SEQ ID NOs: 696, 697) signal” value [2] was 0.85.

With VEKLCTPIWMCLGF [Phage-1785 (clonal phage displaying the peptide of SEQ ID NO: 2081)] the “Anti-PSMA Fab signal” value [3] was 0.0705 and the “Anti-PSMA Fab (SEQ ID NOs: 19, 20) signal” value [4] was 1.84.

LCEWWTSHVDAWCA [Phage-1763] was tested, and the “Anti-PSMA Fab (SEQ ID NOs: 19, 20) signal” value [5] was 0.575 and the “Anti-PSMA Fab signal” value [6] was 0.184.

In the case of LDKWCVPKWMCSGL [Phage-1782 (clonal phage displaying the peptide of SEQ ID NO: 2078)], the “Anti-PSMA Fab signal” value [3] is reported as 0.0742 and the “Anti-PSMA Fab (SEQ ID NOs: 19, 20) signal” value [4] is reported as 1.92.

For DLRLCKPAWMCYFI [Phage-1773], the “Anti-PSMA Fab (SEQ ID NOs: 19, 20) signal” value [5] was 2.11 and the “Anti-PSMA Fab signal” value [6] was 0.0751.

In the case of WEKLCTPAWMCVGF [Phage-1764], the “Anti-PSMA Fab (SEQ ID NOs: 19, 20) signal” value [5] is reported as 2.44 and the “Anti-PSMA Fab signal” value [6] is reported as 0.105.

In the case of HVKLCKPAWMCQGL [Phage-1769], the “Anti-PSMA Fab (SEQ ID NOs: 19, 20) signal” value [5] is reported as 2.18 and the “Anti-PSMA Fab signal” value [6] is reported as 0.0831.

For ECGWEPGQHWRVCF (Peptide-92 library clone) [Phage-1685], the “Anti-CD28 Fab signal” value [1] was 0.06 and the “Anti-CD28 Fab (SEQ ID NOs: 696, 697) signal” value [2] was 0.82.

With WCSAVFSYQWPPCF (Peptide-92 library clone) [Phage-1689] the “Anti-CD28 Fab signal” value [1] was 0.06 and the “Anti-CD28 Fab (SEQ ID NOs: 696, 697) signal” value [2] was 0.78.

With FVPLCKPAWMCSFV [Phage-1768] the “Anti-PSMA Fab (SEQ ID NOs: 19, 20) signal” value [5] was 2.2 and the “Anti-PSMA Fab signal” value [6] was 0.111.

In the case of SCSAGAMWLWPECF (Peptide-92 library clone) [Phage-1688], the “Anti-CD28 Fab signal” value [1] is reported as 0.06 and the “Anti-CD28 Fab (SEQ ID NOs: 696, 697) signal” value [2] is reported as 0.8.

With RCKAGVPYKWPMCL (Peptide-92 library clone) [Phage-1680] the “Anti-CD28 Fab signal” value [1] was 0.06 and the “Anti-CD28 Fab (SEQ ID NOs: 696, 697) signal” value [2] was 0.87.

With FEKLCVPKWMCEGI (also called Peptide-220) [Phage-1770] the “Anti-PSMA Fab (SEQ ID NOs: 19, 20) signal” value [5] was 2.17 and the “Anti-PSMA Fab signal” value [6] was 0.0601.

VLKWCRPAWMCEVL [Phage-1766] was tested, and the “Anti-PSMA Fab (SEQ ID NOs: 19, 20) signal” value [5] was 2.38 and the “Anti-PSMA Fab signal” value [6] was 0.219.

For HCKFHDYHSWYVCY [Phage-1762], the “Anti-PSMA Fab (SEQ ID NOs: 19, 20) signal” value [5] was 2.31 and the “Anti-PSMA Fab signal” value [6] was 0.0994.

FEKWCTPPWMCSLF [Phage-1772] was tested, and the “Anti-PSMA Fab (SEQ ID NOs: 19, 20) signal” value [5] was 2.11 and the “Anti-PSMA Fab signal” value [6] was 0.203.

In the case of IPKSCIPSWMCTGF [Phage-1775 (clonal phage displaying the peptide of SEQ ID NO: 2071)], the “Anti-PSMA Fab signal” value [3] is reported as 0.101 and the “Anti-PSMA Fab (SEQ ID NOs: 19, 20) signal” value [4] is reported as 2.08.

VTKWCIPPWMCEVT (also called Peptide-230) [Phage-1780 (clonal phage displaying the peptide of SEQ ID NO: 2076)] was tested, and the “Anti-PSMA Fab signal” value [3] was 0.0864 and the “Anti-PSMA Fab (SEQ ID NOs: 19, 20) signal” value [4] was 2.

In the case of SCAAGATYKWPACF (Peptide-92 library clone) [Phage-1687], the “Anti-CD28 Fab signal” value [1] is reported as 0.06 and the “Anti-CD28 Fab (SEQ ID NOs: 696, 697) signal” value [2] is reported as 0.8.

VVKACIPTWMCQFV [Phage-1779 (clonal phage displaying the peptide of SEQ ID NO: 2075)] was tested, and the “Anti-PSMA Fab signal” value [3] was 0.0901 and the “Anti-PSMA Fab (SEQ ID NOs: 19, 20) signal” value [4] was 2.02.
